Measured values: patent US20200231671A1 (E R SQUIBB AND SONS L L C, published 2020)

What was measured:
[1] = biological target: T1, human LAG-3 (cell surface) (human, UniProt P18627 23-525); assay: flow cytometry, CHO cells expressing human LAG-3
T1 construct: whole, on cells; also called CHO-human LAG-3
T1 sequence (looked up): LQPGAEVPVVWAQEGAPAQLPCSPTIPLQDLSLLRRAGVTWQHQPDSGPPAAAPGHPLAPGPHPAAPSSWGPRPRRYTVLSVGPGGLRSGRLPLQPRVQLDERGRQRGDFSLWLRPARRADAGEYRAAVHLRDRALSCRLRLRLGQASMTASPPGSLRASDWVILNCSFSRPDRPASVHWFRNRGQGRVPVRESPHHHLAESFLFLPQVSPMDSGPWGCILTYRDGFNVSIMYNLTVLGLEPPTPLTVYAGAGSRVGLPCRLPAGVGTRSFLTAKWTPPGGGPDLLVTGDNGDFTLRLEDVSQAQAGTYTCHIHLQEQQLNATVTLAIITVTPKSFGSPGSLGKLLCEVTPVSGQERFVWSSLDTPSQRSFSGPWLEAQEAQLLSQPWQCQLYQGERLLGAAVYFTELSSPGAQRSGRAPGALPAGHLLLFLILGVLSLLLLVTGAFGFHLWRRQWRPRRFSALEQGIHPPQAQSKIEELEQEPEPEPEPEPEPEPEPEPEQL
Procedure: To test the ability of the antibodies to bind to cell surface LAG-3 protein, the antibodies were incubated with a CHO cell line that had been transfected to express human LAG-3 on the cell surface. The 25F7, 26H10, 25E3, 8B7, 11F2 and 17E5 monoclonal antibodies were serially diluted with cold lx PFAE buffer (1×PBS+2% FBS, 0.02% sodium azide, 2 mM Na EDTA). For the binding reaction, 50 μl of diluted antibody solution was added to a 50 μl cell suspension containing 2×10⁵ cells and the mixture was incubated on ice for 30 minutes. The cells were then washed two times with 1×PFAE buffer. A 1:100 dilution of FITC-labeled goat anti-human kappa light chain antibody (Bethyl Laboratories, Inc., Cat. # A80-115F) was added and the mixture was incubated for 30 minutes at 4° C., followed by washing twice with cold 1×PFAE buffer. After the final wash, 150 μl of cold 1×PFAE containing 10 μg/mL propidium iodide (Roche Applied Science, Cat #1 348 639) was added to each solution and analysis of antibody binding was carried out by flow cytometry using a FACScalibur flow cytometer (BD Bioscience).

[2] = biological target: T2, recombinant human LAG-3 fusion protein (human, UniProt P18627 23-450); assay: BIAcore, antibody captured on anti-CH1, 20 nM LAG-3 fusion protein injected
T2 construct: also called recombinant LAG-3 protein
T2 sequence (looked up): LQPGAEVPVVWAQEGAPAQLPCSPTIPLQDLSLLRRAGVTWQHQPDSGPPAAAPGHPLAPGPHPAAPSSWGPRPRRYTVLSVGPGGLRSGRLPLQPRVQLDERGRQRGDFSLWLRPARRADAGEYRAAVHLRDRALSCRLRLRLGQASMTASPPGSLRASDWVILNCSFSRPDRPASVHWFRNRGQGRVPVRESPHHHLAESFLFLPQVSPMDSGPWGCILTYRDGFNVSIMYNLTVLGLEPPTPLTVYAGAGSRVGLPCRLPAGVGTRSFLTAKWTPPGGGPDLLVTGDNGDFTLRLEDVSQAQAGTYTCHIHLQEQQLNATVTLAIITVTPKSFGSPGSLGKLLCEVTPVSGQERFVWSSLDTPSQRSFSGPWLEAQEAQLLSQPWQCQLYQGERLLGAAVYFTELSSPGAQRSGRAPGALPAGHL
Procedure: The binding of the 25E3, 25F7, 8B7, 26H10 and 17E5 antibodies to recombinant LAG-3 protein was examined by BIAcore™ using a capture method. The 25E3, 25F7, 8B7, 26H10 and 17E5 antibodies each were captured using anti-CH1, a reagent antibody that is specific towards the heavy chain constant region 1 of human antibody (Zymed, Clone HP6045, Stock conc. 1.0 mg/mL). Anti-CH1 was coated on a CMS chip (BR-1000-14, Research Grade) at high density (9700-11500RUs). The coating was carried out based on the standard immobilization procedure recommended by the manufacturer. The 25E3, 25F7, 8B7, 26H10 or 17E5 purified antibody, with concentrations ranging from 0.5-3 μg/mL, was then captured on the anti-CH1 coated surface at the flow-rate of 10 uL/min for 1 minute. A single concentration of recombinant human LAG-3 fusion protein (20 nM) was injected over captured antibody for 3 minutes at a flow rate of […]. The antigen was allowed to dissociate for 7.5 minutes. The chip surface was regenerated after each cycle with 25 μL, of 25 mM NaOH followed by 30 μL of HBS-EP wash. Isotype controls were run on the chip, and the data used to subtract non-specific binding. All the experiments were carried out on a Biacore 3000 surface plasmon resonance instrument, using BIAcore Control software v 3.2. Data analysis was carried out using BiaEvaluation v3.2 software. The BIAcore results for 25E3, 25F7, 8B7, 26H10 and 17E5 confirm the flow cytometry results that all five antibodies are capable of binding with high affinity to human LAG-3.

[3] = biological target: T3, cynomolgus monkey LAG-3 on activated cynomolgus monkey T cells (cynomolgus monkey); assay: flow cytometry, activated cynomolgus CD4+ T cells
T3 construct: whole, on cells
Procedure: To test the ability of the antibodies to bind to native human LAG-3 on the surface of activated human T cells, resting CD4⁺ T cells were isolated from purified peripheral blood mononuclear cells and subjected to three days of stimulation with a combination of anti-CD3 and anti-CD28 antibodies affixed to polystyrene beads. The 25F7, 8B7 and 26H10 monoclonal antibodies were serially diluted with cold 1×PFAE buffer (1×PBS+2% FBS, 0.02% sodium azide, 2 mM Na EDTA). For the binding reaction, 50 μl of diluted antibody solution was mixed with 50 μl of PE-labeled anti-human CD4 (BD Bioscience, Cat # 555347). Activated T cells were processed by the same protocol described above. The analysis of antibody binding was conducted as described above.
In a separate experiment, the antibodies were tested for binding to cynomolgus monkey LAG-3 using activated cynomolgus monkey T cells. In vitro activation of these monkey T cells was achieved through anti-CD³/anti-CD28 treatment of the T cells by essentially the same protocol described above for the in vitro activation of human T cells, followed by flow cytometry analysis performed as described above for staining of in vitro activated human CD4⁺ T cells.

B1: 25F7 human monoclonal antibody (antibody, IgG1, V domains shown)
VH: QVQLQQWGAGLLKPSETLSLTCAVYGGSFSDYYWNWIRQPPGKGLEWIGEINHNGNTNSNPSLKSRVTLSLDTSKNQFSLKLRSVTAADTAVYYCAFGYSDYEYNWFDPWGQGTLVTVSS
VL: EIVLTQSPATLSLSPGERATLSCRASQSISSYLAWYQQKPGQAPRLLIYDASNRATGIPARFSGSGSGTDFTLTISSLEPEDFAVYYCQQRSNWPLTFGQGTNLEIK
notes: also called 25F7-FITC (IgG1 version)
With B1 the EC50 [1] was 0.45 to 2.52 nM, the “fold lower EC50 than 25E3” value [1] was about 20 fold and the Kd [2] was 0.47 nM. It also gave an EC50 [3] of 14.2 nM.

B2: 8B7 human monoclonal antibody (antibody, IgG4, V domains shown)
VH: QVQLQQWGAGLLKPSETLSLTCAVYGGSFSGYYWSWIRQPPGKGLEWIGEINHRGNTNCNPSLKSRVTISGDTSKKQFALKLNSVTAADTAVYYCARGYDILTGYYEDSWGPGTLVTVSS
VL: EIVLTQSPATLSLSPGERATLSCRASQSVSSYLAWYQQKPGQAPRLLIYNASNRATGIPARFSGSGSGTDFTLTISSLEPEDFAVYYCQQRSNWPLTFGGGTKVEIK
notes: also called 8B7-FITC
Binder B2 has an EC50 [1] of 1.93 to 4.44 nM, a Kd [2] of 0.09 nM and an EC50 [3] of 30.4 nM.

B3: 26H10 human monoclonal antibody (antibody, IgG1, V domains shown)
VH: QVQLVESGGGVVQPGRSLRLSCAASGFTFSSYGMHWVRQAPGKGLEWVAVIWYDGSNKYYADSVKGRFTISRDNSKNTLYLQMNSLRAEDTAVYYCAREWAVASWDYGMDVWGQGTTVTVSS
VL: not shown
notes: also called 26H10-FITC
For B3, the EC50 [1] was 1.81 to 3.64 nM, the Kd [2] was 0.1 nM and the EC50 [3] was 5.19 nM.

B4: 25E3 human monoclonal antibody (antibody, IgG1, V domains shown)
VH: EVQLVESGGGVVRPGGSLRLSCAASGFTFDDYGMSWVRQAPGKGLEWVSGINWNGGSTYYADSVKGRFTISGDNAKNSLYLQMNSLRAEDTALYYCTTGGYWGQGTLVTVSS
VL: AIQLTQSPSSLSASVGDRVTITCRASQGIRSALAWYQQKPGKAPKLLIYDASSLESGVPSRFSGSGSGTDFTLTISSLQPEDFATYYCQQFNSYPYTFGQGTKLEIK
With B4 the EC50 [1] was 14.9 to 25.4 nM and the Kd [2] was 0.09 nM.
